B1: FLAG–AMPKα2-WT, P54646 W402A; H403A; L404A; G405A; I406A (protein)
chain: MAEKQKHDGRVKIGHYVLGDTLGVGTFGKVKIGEHQLTGHKVAVKILNRQKIRSLDVVGKIKREIQNLKLFRHPHIIKLYQVISTPTDFFMVMEYVSGGELFDYICKHGRVEEMEARRLFQQILSAVDYCHRHMVVHRDLKPENVLLDAHMNAKIADFGLSNMMSDGEFLRTSCGSPNYAAPEVISGRLYAGPEVDIWSCGVILYALLCGTLPFDDEHVPTLFKKIRGGVFYIPEYLNRSVATLLMHMLQVDPLKRATIKDIREHEWFKQDLPSYLFPEDPSYDANVIDDEAVKEVCEKFECTESEVMNSLYSGDPQDQLAVAYHLIIDNRRIMNQASEFYLASSPPSGSFMDDSAMHIPPGLKPHPERMPPLIADSPKARCPLDALNTTKPKSLAVKKAKAAAAARSQSKPYDIMAEVYRAMKQLDFEWKVVNAYHLRVRRKNPVTGNYVKMSLQLYLVDNRSYLLDFKSIDDEVVEQRSGSSTPQRSCSAAGLHRPRSSFDSTTAESHSLSGSLTGSLTGSTLSSVSPRLGSHTMDFFEMCASLITTLAR
B2: FLAG–AMPKα2-WT, P54646 E418A; V419A; Y420A; R421A (protein)
chain: MAEKQKHDGRVKIGHYVLGDTLGVGTFGKVKIGEHQLTGHKVAVKILNRQKIRSLDVVGKIKREIQNLKLFRHPHIIKLYQVISTPTDFFMVMEYVSGGELFDYICKHGRVEEMEARRLFQQILSAVDYCHRHMVVHRDLKPENVLLDAHMNAKIADFGLSNMMSDGEFLRTSCGSPNYAAPEVISGRLYAGPEVDIWSCGVILYALLCGTLPFDDEHVPTLFKKIRGGVFYIPEYLNRSVATLLMHMLQVDPLKRATIKDIREHEWFKQDLPSYLFPEDPSYDANVIDDEAVKEVCEKFECTESEVMNSLYSGDPQDQLAVAYHLIIDNRRIMNQASEFYLASSPPSGSFMDDSAMHIPPGLKPHPERMPPLIADSPKARCPLDALNTTKPKSLAVKKAKWHLGIRSQSKPYDIMAAAAAAMKQLDFEWKVVNAYHLRVRRKNPVTGNYVKMSLQLYLVDNRSYLLDFKSIDDEVVEQRSGSSTPQRSCSAAGLHRPRSSFDSTTAESHSLSGSLTGSLTGSTLSSVSPRLGSHTMDFFEMCASLITTLAR

Biological target: Arf6 (co-precipitated with FLAG–AMPKα2 from cells), P62330
Sequence (P62330 whole entry): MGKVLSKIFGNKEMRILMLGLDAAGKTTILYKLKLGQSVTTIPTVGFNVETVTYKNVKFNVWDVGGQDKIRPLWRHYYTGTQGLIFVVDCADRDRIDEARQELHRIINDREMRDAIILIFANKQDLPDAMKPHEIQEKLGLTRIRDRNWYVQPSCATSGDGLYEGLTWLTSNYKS
Assay: co-immunoprecipitation (IP anti-FLAG, immunoblot for Arf6), band quantification
Conditions: chain shown with the change; HEK 293T cells transfected with FLAG-AMPKα2 and Arf6-myc; n=4; empty (no FLAG-AMPKα2) control = 1; parent: est. 6.0; read off a plot

Row | Binder | response
1 | B1 | 1.4
2 | B2 | 1.3
